Here are results for 22 molecules from patent publication US20230192896A1 (published 2023).

T1: FX zymogen (UniProt P00742 41-179; P00742 183-488)
T1 chain 1: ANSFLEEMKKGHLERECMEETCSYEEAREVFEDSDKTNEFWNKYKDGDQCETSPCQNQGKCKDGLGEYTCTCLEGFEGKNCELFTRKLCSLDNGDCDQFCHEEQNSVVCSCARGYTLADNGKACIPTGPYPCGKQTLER
T1 chain 2: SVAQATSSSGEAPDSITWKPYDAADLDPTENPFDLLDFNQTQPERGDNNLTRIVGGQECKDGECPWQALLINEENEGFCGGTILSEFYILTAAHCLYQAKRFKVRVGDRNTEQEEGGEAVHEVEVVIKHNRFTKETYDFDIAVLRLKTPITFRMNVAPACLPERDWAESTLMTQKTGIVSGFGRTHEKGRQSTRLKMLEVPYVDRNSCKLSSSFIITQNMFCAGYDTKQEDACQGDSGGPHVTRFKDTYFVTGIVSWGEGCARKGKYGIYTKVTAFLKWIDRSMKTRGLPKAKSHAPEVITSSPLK

B1: BIIB-12-1299 (antibody, V domains shown)
VH: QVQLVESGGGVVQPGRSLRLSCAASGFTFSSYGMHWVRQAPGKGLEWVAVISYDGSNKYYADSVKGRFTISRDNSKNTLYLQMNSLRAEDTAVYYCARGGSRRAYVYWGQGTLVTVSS
VL: EIVMTQSPATLSVSPGERATLSCRASQSVSSNLAWYQQKPGQAPRLLIYGASTRATGIPARFSGSGSGTEFTLTISSLQSEDFAVYYCQQLNNFPITFGGGTKVEIK
B2: BIIB-12-1304 (antibody, V domains shown)
VH: QVQLVESGGGVVQPGRSLRLSCAASGFTFSSYGMHWVRQAPGKGLEWVAVISYDGSNKYYADSVKGRFTISRDNSKNTLYLQMNSLRAEDTAVYYCAKGPGSRRFDIWGQGTMVTVSS
VL: EIVMTQSPATLSVSPGERATLSCRASQSVSSNLAWYQQKPGQAPRLLIYGASTRATGIPARFSGSGSGTEFTLTISSLQSEDFAVYYCQQANVLPLTFGGGTKVEIK
B3: BIIB-12-927 (antibody, V domains shown)
VH: QVQLVQSGAEVKKPGASVKVSCKASGYTFTSYYMSWVRQAPGQGLEWMGIINPSGGSTSYAQKFQGRVTMTRDTSTSTVYMELSSLRSEDTAVYYCARDSGRKRYYYMDVWGKGTTVTVSS
VL: EIVMTQSPATLSVSPGERATLSCRASQSVSSNLAWYQQKPGQAPRLLIYGASTRATGIPARFSGSGSGTEFTLTISSLQSEDFAVYYCQQFNLWPFTFGGGTKVEIK
B4: BIIB-12-1305 (antibody, V domains shown)
VH: QVQLVESGGGVVQPGRSLRLSCAASGFTFSSYGMHWVRQAPGKGLEWVAVISYDGSNKYYADSVKGRFTISRDNSKNTLYLQMNSLRAEDTAVYYCAKLGGRWSSDFQHWGQGTLVTVSS
VL: EIVLTQSPATLSLSPGERATLSCRASQSVSSYLAWYQQKPGQAPRLLIYDASNRATGIPARFSGSGSGTDFTLTISSLEPEDFAVYYCQQSANWPPTFGGGTKVEIK
B5: BIIB-12-1291 (antibody, V domains shown)
VH: QVQLVQSGAEVKKPGASVKVSCKASGYTFTSYYMHWVRQAPGQGLEWMGIINPSGGSTSYAQKFQGRVTMTRDTSTSTVYMELSSLRSEDTAVYYCARSRRMWVGYFDLWGRGTLVTVSS
VL: EIVLTQSPATLSLSPGERATLSCRASQSVSSYLAWYQQKPGQAPRLLIYDASNRATGIPARFSGSGSGTDFTLTISSLEPEDFAVYYCQQRLNLPLTFGGGTKVEIK
B6: BIIB-12-1330 (antibody, V domains shown)
VH: QVQLVESGGGVVQPGRSLRLSCAASGFTFSSYGMHWVRQAPGKGLEWVAVISYDGSNKYYADSVKGRFTISRDNSKNTLYLQMNSLRAEDTAVYYCAKGGSARWINIWGQGTTVTVSS
VL: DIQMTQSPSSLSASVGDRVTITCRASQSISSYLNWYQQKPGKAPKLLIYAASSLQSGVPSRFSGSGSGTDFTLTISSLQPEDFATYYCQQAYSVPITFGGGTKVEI
B7: BIIB-12-918 (antibody, V domains shown)
VH: QVQLVESGGGVVQPGRSLRLSCAASGFTFSSYGMHWVRQAPGKGLEWVAVISYDGSNKYYADSVKGRFTISRDNSKNTLYLQMNSLRAEDTAVYYCAKSLGGRSFDIWGQGTMVTVSS
VL: DIQMTQSPSSLSASVGDRVTITCRASQSISRYLNWYQQKPGKAPKLLIYAASSLQSGVPSRFSGSGSGTDFTLTISSLQPEDFATYYCQQIFSLPITFGGGTKVEIK
B8: BIIB-12-900 (antibody, V domains shown)
VH: QVQLVQSGAEVKKPGASVKVSCKASGYTFTSYYMHWVRQAPGQGLEWMGIINPGGGSTSYAQKFQGRVTMTRDTSTSTVYMELSSLRSEDTAVYYCARSGGMYDRELGMDVWGQGTTVTVSS
VL: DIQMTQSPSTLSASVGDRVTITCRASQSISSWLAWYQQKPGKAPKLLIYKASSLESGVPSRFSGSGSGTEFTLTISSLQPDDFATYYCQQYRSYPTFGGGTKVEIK
B9: BIIB-12-1288 (antibody, V domains shown)
VH: QVQLVQSGAEVKKPGASVKVSCKASGYTFTSYYMHWVRQAPGQGLEWMGIINPSGGSTSYAQKFQGRVTMTRDTSTSTVYMELSSLRSEDTAVYYCARGGANDYGSSSRWWYFDLWGRGTLVTVSS
VL: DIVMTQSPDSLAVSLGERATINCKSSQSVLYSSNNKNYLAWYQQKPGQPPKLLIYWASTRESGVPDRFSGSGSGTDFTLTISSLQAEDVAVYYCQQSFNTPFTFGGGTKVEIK
B10: BIIB-12-1289 (antibody, V domains shown)
VH: QVQLVQSGAEVKKPGASVKVSCKASGYTFTSYYMHWVRQAPGQGLEWMGIINPGGGSTSYAQKFQGRVTMTRDTSTSTVYMELSSLRSEDTAVYYCARGPPRTYATGSHNWFDPWGQGTLVTVSS
VL: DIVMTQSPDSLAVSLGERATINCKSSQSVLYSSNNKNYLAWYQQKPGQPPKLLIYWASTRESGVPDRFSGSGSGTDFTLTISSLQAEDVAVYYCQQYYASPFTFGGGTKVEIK
B11: BIIB-12-928 (antibody, V domains shown)
VH: QVQLVEFGVGVVQPGRSLRLSCAASGFTFSSYGMHWVRQAPGKGLEWVAVISYDGSNKYYADSVKGRFTISRDNSKNTLYLQMNSLRAEDTAVYYCAKGGTYLDTWGQGTLVTVSS
VL: EIVLTQSPGTLSLSPGERATLSCRASQSVRSSYLAWYQQKPGQAPRLLIYGASSRATGIPDRFSGSGSGTDFTLTISRLEPEDFAVYYCQQYVRFPLTFGGGTKVEIK
B12: BIIB-12-905 (antibody, V domains shown)
VH: QVQLVESGGGVVQPGRSLRLSCAASGFTFSSYGMHWVRQAPGKGLEWVAVISYDGSNKYYADSVKGRFTISRDNSKNTLYLQMNSLRAEDTAVYYCAKGGTYLDTWGQGTLVTVSS
VL: EIVLTQSPGTLSLSPGERATLSCRASQSVRSSYLAWYQQKPGQAPRLLIYGASSRATGIPDRFSGSGSGTDFTLTISRLEPEDFAVYYCQQYGRFPPTFGGGTKVEIK
B13: BIIB-12-920 (antibody, V domains shown)
VH: QVQLVQSGAEVKKPGASVKVSCKASGYTFTSYGISWVRQAPGQGLEWMGWISPYNGNTNYAQKLQGRVTMTTDTSTSTAYMELRSLRSDDTAVYYCARGSGHTTMFWGQGTLVTVSS
VL: EIVMTQSPATLSVSPGERATLSCRASQSVSSNLAWYQQKPGQAPRLLIYSASTRATGIPARFSGSGSGTEFTLTISSLQSEDFAVYYCQQANAYPPTFGGGTKVEI
B14: BIIB-12-934 (antibody, V domains shown)
VH: QVQLVESGGGVVQPGRSLRLSCAASGFTFSSYGMHWVRQAPGKGLEWVAVISYDGSNKYYADSVKGRFTISRDNSKNTLYLQMNSLRAEDTAVYYCARESGGHSYGMDVWGQGTTVTVSS
VL: EIVLTQSPATLSVSPGERATLSCRASQSVSSNLAWYQQKPGQAPRLLIYGASTRATGIPARFSGSGSGTEFTLTISSLQSEDFAVYYCQQFNDHPITFGGGTKVEI
B15: BIIB-12-1290 (antibody, V domains shown)
VH: QVQLVQSGAEVKKPGASVKVSCKASGYTFTSYYMHWVRQAPGQGLEWMGIINPGGGSTSYAQKFQGRVTMTRDTSTSTVYMELSSLRSEDTAVYYCAREGGRYVRGMDVWGQGTTVTVSS
VL: DIQMTQSPSSVSASVGDRVTITCRASQGISSWLAWYQQKPGKAPKLLIYAASSLQSGVPSRFSGSGSGTDFTLTISSLQPEDFATYYCQQGFSFPFTFGGGTKVEIK
B16: BIIB-12-893 (antibody, V domains shown)
VH: QVQLVQSGAEVKKPGASVKVSCKASGYTFTSYYMVWVRQAPGQGLEWMGIINPSGGSTSYAQKFQGRVTMTRDTSTSTVYMELSSLRSEDTAVYYCARDPGRRQYSFYGMDVWGQGTTVTVSS
VL: DIQLTQSPSSVSASVGDRVTITCRASQGISSWLAWYQQKPGKAPKLLIYAASSLQSGVPSRFSGSGSGTDFTLTISSLQPEDFATYYCQQAAAFPFTFGGGTKVEIK
B17: BIIB-12-1309 (antibody, V domains shown)
VH: QVQLVESGGGVVQPGRSLRLSCAASGFTFSSYGMHWVRQAPGKGLEWVAVISYDGSNKYYADSVKGRFTISRDNSKNTLYLQMNSLRAEDTAVYYCARGRYTSRYFQHWGQGTLVTVSS
VL: DIQMTQSPSSVSASVGDRVTITCRASQGISSWLAWYQQKPGKAPKLLIYAASSLQSGVPSRFSGSGSGTDFTLTISSLQPEDFATYYCQQANSLPITFGGGTKVEIK
B18: BIIB-12-1323 (antibody, V domains shown)
VH: QVQLVQSGAEVKKPGASVKVSCKASGYTFTSYYIHWVRQAPGQGLEWMGIINPSGGSTSYAQKFQGRVTMTRDTSTSTVYMELSSLRSEDTAVYYCARGRRFPRGLDYWGQGTLVTVSS
VL: DIQMTQSPSSVSASVGDRVTITCRASQGISSWLAWYQQKPGKAPKLLIYAASSLQSGVPSRFSGSGSGTDFTLTISSLQPEDFATYYCQQANIFPFTFGGGTKVEIK
B19: BIIB-12-1312 (antibody, V domains shown)
VH: QVQLVESGGGVVQPGRSLRLSCAASGFTFSSYGMHWVRQAPGKGLEWVAVISYDGSNKYYADSVKGRFTISRDNSKNTLYLQMNSLRAEDTAVYYCAKGMGHWIDYWGQGTLVTVSS
VL: DIQMTQSPSSVSASVGDRVTITCRASQGISSWLAWYQQKPGKAPKLLIYAASSLQSGVPSRFSGSGSGTDFTLTISSLQPEDFATYYCQQASSFPPTFGGGTKVEIK
B20: BIIB-12-896 (antibody, V domains shown)
VH: QVQLVQSGAEVKKPGASVKVSCKASGYTFTSYYMHWVRQAPGQGLEWMGIINPSGGSTSYAQKFQGRVTMTRDTSTSTVYMELSSLRSEDTAVYYCARGLGQQRRGFDIWGQGTLVTVSS
VL: DIQMTQSPSSVSASVGDRVTITCRASQGISSWLAWYQQKPGKAPKLLIYAASSLQSGVPSRFSGSGSGTDFTLTISSLQPEDFATYYCQQANSFPFTFGGGTKVEIK
B21: BIIB-12-895 (antibody, V domains shown)
VH: QVQLVQSGAEVKKPGASVKVSCKASGYTFTSYYMHWVRQAPGQGLEWMGIINPSGGSTSYAQKFQGRVTMTRDTSTSTVYMELSSLRSEDTAVYYCARGGGYKSRGIDYWGQGTLVTVSS
VL: DIQMTQSPSSVSASVGDRVTITCRASQGISSWLAWYQQKPGKAPKLLIYAASSLQSGVPSRFSGSGSGTDFTLTISSLQPEDFATYYCQQASSFPFTFGGGTKVEI
B22: BIIB-12-898 (antibody, V domains shown)
VH: QVQLVQSGAEVKKPGASVKVSCKASGYTFTSYYMHWVRQAPGQGLEWMGIINPSGGSTTYAQKFQGRVTMTRDTSTSTVYMELSSLRSEDTAVYYCARGDRMLRAFDPWGQGTLVTVSS
VL: DIQLTQSPSTLSASVGDRVTITCRASQAISSWLAWYQQKPGKAPKLLIYDASSLESGVPSRFSGSGSGTEFTLTISSLQPDDFATYYCQQVNRFPFTFGGGTKVEIK

The test addresses T1, FX zymogen. Nature of the test: BLI. (In BLI a coated tip is dipped into the sample, and binding shifts an interference pattern.)
Consider B1, for which binding was put at a Kd of 50.8 nM.
Next, B2: 50.5 nM; B3: 26.6 nM.
The molecule B4 had a Kd of 38.8 nM.
B5 came in with an equilibrium dissociation constant (Kd) of 42.6 nM.
Next, B6: 56.8 nM; B7: 27.7 nM.
Next, B8: 25.8 nM; B9: 85.6 nM.
Next, B10: 48 nM; B11: 23.1 nM.
Molecule B12 displayed a Kd of 48.4 nM.
To B13 belongs 27.7 nM.
To B14 belongs 60.2 nM; to B15, 16.1 nM; to B16, 52.2 nM.
Regarding B17, the Kd amounted to 49.9 nM.
To B18 belongs 38.6 nM; to B19, 14.7 nM; to B20, 63.4 nM.
To B21 belongs 26.3 nM.
Next, B22: 18.5 nM.

A word on the Kd: it is the constant that tells how readily two partners part at equilibrium.
